From US20230250154A1 (CYTONICS, published 2023)

Experiments:
Experiment in all cases: cell-based or functional assay
ADAMTS4 = biological target: T1, ADAMTS4 (human, UniProt O75173 213-685, limits assumed)
T1 sequence (looked up): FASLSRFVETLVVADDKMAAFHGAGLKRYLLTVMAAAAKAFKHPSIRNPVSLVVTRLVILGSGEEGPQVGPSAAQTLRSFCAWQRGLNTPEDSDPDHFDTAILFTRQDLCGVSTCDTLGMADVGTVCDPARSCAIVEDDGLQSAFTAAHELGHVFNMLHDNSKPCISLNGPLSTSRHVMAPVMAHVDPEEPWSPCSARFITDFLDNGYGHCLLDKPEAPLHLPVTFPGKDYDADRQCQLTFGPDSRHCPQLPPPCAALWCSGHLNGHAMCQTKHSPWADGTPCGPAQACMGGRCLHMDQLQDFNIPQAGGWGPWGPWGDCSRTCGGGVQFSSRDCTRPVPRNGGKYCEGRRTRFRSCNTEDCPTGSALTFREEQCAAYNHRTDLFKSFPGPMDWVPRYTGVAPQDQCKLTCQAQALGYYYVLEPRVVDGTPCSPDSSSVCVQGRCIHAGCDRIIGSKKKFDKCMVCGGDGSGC

ADAMTS5 = biological target: T2, ADAMTS5 (human, UniProt Q9UNA0 262-622, limits assumed)
T2 sequence (looked up): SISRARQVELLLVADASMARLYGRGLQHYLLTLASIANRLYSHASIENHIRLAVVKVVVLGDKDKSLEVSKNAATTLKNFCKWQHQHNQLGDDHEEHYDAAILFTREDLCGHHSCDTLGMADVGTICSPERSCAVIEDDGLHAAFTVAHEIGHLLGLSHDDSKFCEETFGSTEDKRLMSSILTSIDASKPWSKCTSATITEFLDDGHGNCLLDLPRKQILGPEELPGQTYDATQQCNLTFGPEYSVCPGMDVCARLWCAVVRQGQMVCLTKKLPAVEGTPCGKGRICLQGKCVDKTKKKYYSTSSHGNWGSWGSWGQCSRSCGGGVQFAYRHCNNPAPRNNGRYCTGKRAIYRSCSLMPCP

MMP13 = MMP13 (human, UniProt P45452 104-471, limits assumed)

B1: Variant A2M, bait region SEQ ID NO 104 (other)
chain: SVSGKPQYMVLVPSLLHTETTEKGCVLLSYLNETVTVSASLESVRGNRSLFTDLEAENDVLHCVAFAVPKSSSNEEVMFLTVQVKGPTQEFKKRTTVMVKNEDSLVFVQTDKSIYKPGQTVKFRVVSMDENFHPLNELIPLVYIQDPKGNRIAQWQSFQLEGGLKQFSFPLSSEPFQGSYKVVVQKKSGGRTEHPFTVEEFVLPKFEVQVTVPKIITILEEEMNVSVCGLYTYGKPVPGHVTVSICRKYSDASDCHGEDSQAFCEKFSGQLNSHGCFYQQVKTKVFQLKRKEYEMKLHTEAQIQEEGTVVELTGRQSSEITRTITKLSFVKVDSHFRQGIPFFGQVRLVDGKGVPIPNKVIFIRGNEANYYSNATTDEHGLVQFSINTTNVMGTSLTVRVNYKDRSPCYGYQWVSEEHEEAHHTAYLVFSPSKSFVHLEPMSHELPCGHTQTVQAHYILNGGTLLGLKKLSFYYLIMAKGGIVRTGTHGLLVKQEDMKGHFSISIPVKSDIAPVARLLIYAVLPTGDVIGDSAKYDVENCLANKVDLSFSPSQSLPASHAHLRVTAAPQSVCALRAVDQSVLLMKPDAELSASSVYNLLPEKDLTGFPGPLNDQDDEDCINRHNVYINGITYTPVSSTNEKDMYSFLEDMGLKAFTNSKIRKPKMCPQLEQYEMHGPEGLRVGESESEGGGGGSLLGEFEVEGGFAGLPNGKLRKYFPETWIWDLVVVNSAGVAEVGVTVPDTITEWKAGAFCLSEDAGLGISSTASLRAFQPFFVELTMPYSVIRGEAFTLKATVLNYLPKCIRVSVQLEASPAFLAVPVEKEQAPHCICANGRQTVSWAVTPKSLGNVNFTVSAEALESQELCGTEVPSVPEHGRKDTVIKPLLVEPEGLEKETTFNSLLCPSGGEVSEELSLKLPPNVVEESARASVSVLGDILGSAMQNTQNLLQMPYGCGEQNMVLFAPNIYVLDYLNETQQLTPEIKSKAIGYLNTGYQRQLNYKHYDGSYSTFGERYGRNQGNTWLTAFVLKTFAQARAYIFIDEAHITQALIWLSQRQKDNGCFRSSGSLLNNAIKGGVEDEVTLSAYITIALLEIPLTVTHPVVRNALFCLESAWKTAQEGDHGSHVYTKALLAYAFALAGNQDKRKEVLKSLNEEAVKKDNSVHWERPQKPKAPVGHFYEPQAPSAEVEMTSYVLLAYLTAQPAPTSEDLTSATNIVKWITKQQNAQGGFSSTQDTVVALHALSKYGAATFTRTGKAAQVTIQSSGTFSSKFQVDNNNRLLLQQVSLPELPGEYSMKVTGEGCVYLQTSLKYNILPEKEEFPFALGVQTLPQTCDEPKAHTSFQISLSVSYTGSRSASNMAIVDVKMVSGFIPLKPTVKMLERSNHVSRTEVSSNHVLIYLDKVSNQTLSLFFTVLQDVPVRDLKPAIVKVYDYYETDEFAIAEYNAPCSKDLGNADYKDDDDKGASHHHHHH
Protease Inhibition (% of WT) (ADAMTS4): 100 % of WT
Protease Inhibition (% of WT) (ADAMTS5): 99 % of WT
Protease Inhibition (% of WT) (MMP13): 80 % of WT

B2: Variant A2M, bait region SEQ ID NO 103 (other)
chain: SVSGKPQYMVLVPSLLHTETTEKGCVLLSYLNETVTVSASLESVRGNRSLFTDLEAENDVLHCVAFAVPKSSSNEEVMFLTVQVKGPTQEFKKRTTVMVKNEDSLVFVQTDKSIYKPGQTVKFRVVSMDENFHPLNELIPLVYIQDPKGNRIAQWQSFQLEGGLKQFSFPLSSEPFQGSYKVVVQKKSGGRTEHPFTVEEFVLPKFEVQVTVPKIITILEEEMNVSVCGLYTYGKPVPGHVTVSICRKYSDASDCHGEDSQAFCEKFSGQLNSHGCFYQQVKTKVFQLKRKEYEMKLHTEAQIQEEGTVVELTGRQSSEITRTITKLSFVKVDSHFRQGIPFFGQVRLVDGKGVPIPNKVIFIRGNEANYYSNATTDEHGLVQFSINTTNVMGTSLTVRVNYKDRSPCYGYQWVSEEHEEAHHTAYLVFSPSKSFVHLEPMSHELPCGHTQTVQAHYILNGGTLLGLKKLSFYYLIMAKGGIVRTGTHGLLVKQEDMKGHFSISIPVKSDIAPVARLLIYAVLPTGDVIGDSAKYDVENCLANKVDLSFSPSQSLPASHAHLRVTAAPQSVCALRAVDQSVLLMKPDAELSASSVYNLLPEKDLTGFPGPLNDQDDEDCINRHNVYINGITYTPVSSTNEKDMYSFLEDMGLKAFTNSKIRKPKMCPQLEQYEMHGPEGLRVGGARGLEGGFAGLPNGGEEGVEEGKLRKYFPETWIWDLVVVNSAGVAEVGVTVPDTITEWKAGAFCLSEDAGLGISSTASLRAFQPFFVELTMPYSVIRGEAFTLKATVLNYLPKCIRVSVQLEASPAFLAVPVEKEQAPHCICANGRQTVSWAVTPKSLGNVNFTVSAEALESQELCGTEVPSVPEHGRKDTVIKPLLVEPEGLEKETTFNSLLCPSGGEVSEELSLKLPPNVVEESARASVSVLGDILGSAMQNTQNLLQMPYGCGEQNMVLFAPNIYVLDYLNETQQLTPEIKSKAIGYLNTGYQRQLNYKHYDGSYSTFGERYGRNQGNTWLTAFVLKTFAQARAYIFIDEAHITQALIWLSQRQKDNGCFRSSGSLLNNAIKGGVEDEVTLSAYITIALLEIPLTVTHPVVRNALFCLESAWKTAQEGDHGSHVYTKALLAYAFALAGNQDKRKEVLKSLNEEAVKKDNSVHWERPQKPKAPVGHFYEPQAPSAEVEMTSYVLLAYLTAQPAPTSEDLTSATNIVKWITKQQNAQGGFSSTQDTVVALHALSKYGAATFTRTGKAAQVTIQSSGTFSSKFQVDNNNRLLLQQVSLPELPGEYSMKVTGEGCVYLQTSLKYNILPEKEEFPFALGVQTLPQTCDEPKAHTSFQISLSVSYTGSRSASNMAIVDVKMVSGFIPLKPTVKMLERSNHVSRTEVSSNHVLIYLDKVSNQTLSLFFTVLQDVPVRDLKPAIVKVYDYYETDEFAIAEYNAPCSKDLGNADYKDDDDKGASHHHHHH
Protease Inhibition (% of WT) (ADAMTS4): 168 % of WT
Protease Inhibition (% of WT) (ADAMTS5): 309 % of WT
Protease Inhibition (% of WT) (MMP13): 52 % of WT

B3: Variant A2M, bait region SEQ ID NO 102 (other)
chain: SVSGKPQYMVLVPSLLHTETTEKGCVLLSYLNETVTVSASLESVRGNRSLFTDLEAENDVLHCVAFAVPKSSSNEEVMFLTVQVKGPTQEFKKRTTVMVKNEDSLVFVQTDKSIYKPGQTVKFRVVSMDENFHPLNELIPLVYIQDPKGNRIAQWQSFQLEGGLKQFSFPLSSEPFQGSYKVVVQKKSGGRTEHPFTVEEFVLPKFEVQVTVPKIITILEEEMNVSVCGLYTYGKPVPGHVTVSICRKYSDASDCHGEDSQAFCEKFSGQLNSHGCFYQQVKTKVFQLKRKEYEMKLHTEAQIQEEGTVVELTGRQSSEITRTITKLSFVKVDSHFRQGIPFFGQVRLVDGKGVPIPNKVIFIRGNEANYYSNATTDEHGLVQFSINTTNVMGTSLTVRVNYKDRSPCYGYQWVSEEHEEAHHTAYLVFSPSKSFVHLEPMSHELPCGHTQTVQAHYILNGGTLLGLKKLSFYYLIMAKGGIVRTGTHGLLVKQEDMKGHFSISIPVKSDIAPVARLLIYAVLPTGDVIGDSAKYDVENCLANKVDLSFSPSQSLPASHAHLRVTAAPQSVCALRAVDQSVLLMKPDAELSASSVYNLLPEKDLTGFPGPLNDQDDEDCINRHNVYINGITYTPVSSTNEKDMYSFLEDMGLKAFTNSKIRKPKMCPQLEQYEMHGPEGLRVGGYPGSSRGFYESDVMGRGHARLVHVEEPHTKLLRKYFPETWIWDLVVVNSAGVAEVGVTVPDTITEWKAGAFCLSEDAGLGISSTASLRAFQPFFVELTMPYSVIRGEAFTLKATVLNYLPKCIRVSVQLEASPAFLAVPVEKEQAPHCICANGRQTVSWAVTPKSLGNVNFTVSAEALESQELCGTEVPSVPEHGRKDTVIKPLLVEPEGLEKETTFNSLLCPSGGEVSEELSLKLPPNVVEESARASVSVLGDILGSAMQNTQNLLQMPYGCGEQNMVLFAPNIYVLDYLNETQQLTPEIKSKAIGYLNTGYQRQLNYKHYDGSYSTFGERYGRNQGNTWLTAFVLKTFAQARAYIFIDEAHITQALIWLSQRQKDNGCFRSSGSLLNNAIKGGVEDEVTLSAYITIALLEIPLTVTHPVVRNALFCLESAWKTAQEGDHGSHVYTKALLAYAFALAGNQDKRKEVLKSLNEEAVKKDNSVHWERPQKPKAPVGHFYEPQAPSAEVEMTSYVLLAYLTAQPAPTSEDLTSATNIVKWITKQQNAQGGFSSTQDTVVALHALSKYGAATFTRTGKAAQVTIQSSGTFSSKFQVDNNNRLLLQQVSLPELPGEYSMKVTGEGCVYLQTSLKYNILPEKEEFPFALGVQTLPQTCDEPKAHTSFQISLSVSYTGSRSASNMAIVDVKMVSGFIPLKPTVKMLERSNHVSRTEVSSNHVLIYLDKVSNQTLSLFFTVLQDVPVRDLKPAIVKVYDYYETDEFAIAEYNAPCSKDLGNADYKDDDDKGASHHHHHH
Protease Inhibition (% of WT) (ADAMTS4): 187 % of WT
Protease Inhibition (% of WT) (ADAMTS5): 354 % of WT
Protease Inhibition (% of WT) (MMP13): 127 % of WT
